Test results as given in the supplement of paper PMC6757056.
± gives the standard deviation of the averaged measurements.

B1: library; a variant is named by its letters at N, in order (parent)
chain: GCUGUCACCGGUGCUUGGUACGUUAUAUUCAGCCGGUCUGAUGAGUCUNNNNNNAGACGAAACAGC

Columns and labels:
[1] = variants of: B1; experiment: FACS-Seq fitted mean relative fluorescence mCherry/BFP without ligand (log10 relative fluorescence); HEK293T overexpressing SLC46A1; higher = higher reporter protein expression; conditions: without (6R,S)-folinic acid; ligand present: no
Summary of the method: (§1)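 Fluorescence values are fitted normal means of bin counts along the mCherry/BFP axis. HEK293T libraries lentivirally carrying the ribozyme switch in an mCherry reporter, with an EF1α-BFP marker, were enriched, exposed to ligand or not for 48 h, and sorted into 6 bins. Genomic DNA per bin was PCR-amplified, barcoded and run on MiSeq. Means of log10(mCherry/BFP) were scaled to five spiked-in control ribozymes.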

[2] = variants of: B1; experiment: normalized RNA/DNA level without ligand (relative to sTRSVctl = 100) (log10 (% of sTRSVctl)); HEK293T overexpressing SLC46A1; higher = less ribozyme self-cleavage, higher mRNA level; conditions: without (6R,S)-folinic acid; ligand present: no
Summary of the method: (§2)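 HEK293T cells were transfected with library plasmids carrying ribozyme switches linked to an mCherry reporter, or an eGFP reporter in some ligand experiments, at 4 µg per well of a 6-well plate, with any ligand added 1 h beforehand. After 72 h, total RNA was extracted with EDTA, reverse-transcribed, amplified, barcoded and sequenced. RNA level was defined as RNA reads over DNA reads, normalized to a spiked-in non-cleaving sequence or to the top-ranked sequences. That value was multiplied by 100 and converted to log10, the top set was 25 sequences, and only sequences with ≥100 DNA reads were retained.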

[3] = variants of: B1; experiment: FACS-Seq fitted mean relative fluorescence mCherry/BFP with ligand (log10 relative fluorescence); HEK293T overexpressing SLC46A1; ligand concentration (+) FACS-Seq: 6 mM; higher = higher reporter protein expression; conditions: with (6R,S)-folinic acid; ligand present: yes
Summary of the method: as §1

[4] = variants of: B1; experiment: normalized RNA/DNA level with ligand (relative to sTRSVctl = 100) (log10 (% of sTRSVctl)); HEK293T overexpressing SLC46A1; ligand concentration (+) RNA-Seq: 6 mM; higher = less ribozyme self-cleavage, higher mRNA level; conditions: with (6R,S)-folinic acid; ligand present: yes
Summary of the method: as §2

Row | Variant | FACS-Seq fitted mean (log10) [1] | normalized RNA/DNA level without ligand (log10) [2] | FACS-Seq fitted mean (log10) [3] | normalized RNA/DNA level with ligand (log10) [4]
1 | ACGAAA | 0.141 ± 0.013 | 1.956 ± 0.0063 | -0.0169 ± 0.14 | 2 ± 0.04
2 | ACGAAG | 0.365 ± 0.028 | 1.834 ± 0.0094 | 0.953 ± 0.2 | 1.993 ± 0.017
3 | UCUUAG | 0.183 ± 0.18 | 1.86 ± 0.053 | -0.141 ± 0.14 | 2.02 ± 0.019
4 | ACCAAA | 0.632 ± 0.15 | 2.018 ± 0.012 | 0.52 ± 0.14 | 2.017 ± 0.011
5 | CCCCUA | 0.532 ± 0.01 | 2.052 ± 0.0066 | 0.388 ± 0.34 | 2.06 ± 0.034
6 | CCCCUG | 0.237 ± 0.046 | 2.063 ± 0.0031 | 0.0558 ± 0.16 | 2.053 ± 0.0049
7 | GCAUUA | 0.539 ± 0.07 | 1.995 ± 0.011 | 0.484 ± 0.1 | 2.03 ± 0.028
8 | CCAUGU | 0.369 ± 0.014 | 2.035 ± 0.018 | 0.222 ± 0.16 | 2.03 ± 0.04
9 | UGAAAC | 0.4232 ± 0.0017 | 1.946 ± 0.0065 | 0.578 ± 0.21 | 2 ± 0.042
10 | UGAAAA | 0.648 ± 0.13 | 1.98 ± 0.021 | 0.692 ± 0.22 | 1.992 ± 0.019
11 | UCAUUG | 0.0972 ± 0.14 | 1.876 ± 0.0017 | 0.304 ± 0.23 | 2 ± 0.05
12 | UCGAAG | -0.0439 ± 0.018 | 1.74 ± 0.041 | -0.0157 ± 0.066 | 1.991 ± 0.0057
13 | UCGAAU | 0.347 ± 0.072 | 1.932 ± 0.013 | 0.308 ± 0.13 | 2 ± 0.044
14 | UCCAAG | 0.322 ± 0.11 | 1.815 ± 0.0067 | 0.489 ± 0.12 | 1.992 ± 0.006
15 | UCUUGG | 0.272 ± 0.099 | 1.904 ± 0.0099 | 0.131 ± 0.092 | 1.99 ± 0.022
16 | UCUUGC | 0.264 ± 0.036 | 2.018 ± 0.0075 | 0.449 ± 0.17 | 2.009 ± 0.016
17 | CCGGUU | 0.218 ± 0.017 | 2.038 ± 0.016 | -0.22 ± 0.1 | 2.01 ± 0.018
18 | ACUAAG | 0.437 ± 0.1 | 1.924 ± 0.018 | 0.751 ± 0.14 | 2 ± 0.037
19 | ACUAAA | 0.538 ± 0.18 | 1.9903 ± 0.0016 | 0.483 ± 0.097 | 2.022 ± 0.018
20 | ACUAAC | 0.18 ± 0.0049 | 2 ± 0.017 | 0.412 ± 0.046 | 2.01 ± 0.045
21 | CCUGAU | -0.195 ± 0.23 | 2.02 ± 0.024 | -0.196 ± 0.058 | 2.05 ± 0.028
22 | UCUUUU | 0.427 ± 0.12 | 2.005 ± 0.0088 | 0.26 ± 0.18 | 2.027 ± 0.013
23 | UCCAGA | -0.0235 ± 0.25 | 2.01 ± 0.0079 | 0.123 ± 0.14 | 2 ± 0.029
24 | UCCAGG | 0.587 ± 0.23 | 1.976 ± 0.011 | 0.559 ± 0.28 | 2.01 ± 0.056

Row | Variant | FACS-Seq fitted mean (log10) [1] | normalized RNA/DNA level without ligand (log10) [2] | FACS-Seq fitted mean (log10) [3] | normalized RNA/DNA level with ligand (log10) [4]
25 | UCGUAA | -0.407 ± 0.028 | 1.937 ± 0.0094 | -0.393 ± 0.27 | 2.007 ± 0.0097
26 | UCGUAC | 0.373 ± 0.053 | 2.032 ± 0.019 | 0.343 ± 0.14 | 2.049 ± 0.0073
27 | ACCUAU | 0.349 ± 0.089 | 2.019 ± 0.018 | 0.644 ± 0.022 | 2.05 ± 0.033
28 | ACCUAG | 0.3338 ± 0.0029 | 1.956 ± 0.0051 | 0.37 ± 0.31 | 2.02 ± 0.03
29 | UCUGGG | 0.501 ± 0.098 | 1.836 ± 0.012 | 0.524 ± 0.01 | 1.98 ± 0.027
30 | UCUGGA | 0.542 ± 0.018 | 1.99 ± 0.012 | -0.0265 ± 0.23 | 2.05 ± 0.027
31 | UCCGAG | -0.0266 ± 0.13 | 1.809 ± 0.011 | 0.131 ± 0.18 | 1.9932 ± 0.0011
32 | ACGUAA | 0.69 ± 0.24 | 1.962 ± 0.0024 | 0.689 ± 0.3 | 2.006 ± 0.0065
33 | ACGUAG | 0.217 ± 0.032 | 1.912 ± 0.0036 | 0.598 ± 0.16 | 1.9927 ± 0.0014
34 | GCCAAA | 0.458 ± 0.071 | 2.02 ± 0.017 | 0.495 ± 0.12 | 2.029 ± 0.0061
35 | CCUAGC | 0.339 ± 0.022 | 2.075 ± 0.011 | 0.3 ± 0.46 | 2.053 ± 0.006
36 | UCGGUG | -0.084 ± 0.14 | 1.817 ± 0.0011 | 0.096 ± 0.055 | 2 ± 0.03
37 | UCGGUU | 0.629 ± 0.068 | 2.033 ± 0.0021 | 0.695 ± 0.2 | 2.06 ± 0.023
38 | UCCGGG | 0.446 ± 0.031 | 2.02 ± 0.026 | 0.62 ± 0.13 | 2.05 ± 0.031
39 | CCGAGC | 0.201 ± 0.25 | 2.049 ± 0.0044 | 0.357 ± 0.22 | 2.01 ± 0.03
40 | CCCUCA | 0.596 ± 0.099 | 2.0625 ± 0.0014 | 0.512 ± 0.32 | 2.04 ± 0.038
41 | ACGCCU | -0.804 ± 0.062 | 2.07 ± 0.011 | -1.68 ± 0.58 | 2.06 ± 0.046
42 | GCGUAC | 0.258 ± 0.3 | 1.974 ± 0.0093 | 0.514 ± 0.11 | 2.02 ± 0.022
43 | GCGUAG | 0.314 ± 0.07 | 1.962 ± 0.0022 | 0.372 ± 0.13 | 2.05 ± 0.022
44 | GCGUAA | 0.297 ± 0.07 | 1.991 ± 0.014 | 0.2 ± 0.11 | 2.04 ± 0.046
45 | ACUGAA | 0.265 ± 0.035 | 1.953 ± 0.0034 | 0.375 ± 0.18 | 1.981 ± 0.0063
46 | ACUGAG | 0.198 ± 0.044 | 1.7978 ± 0.0006 | 0.446 ± 0.082 | 2 ± 0.023
47 | GCUUCA | 0.3988 ± 0.0025 | 2.04 ± 0.033 | 0.641 ± 0.1 | 2.06 ± 0.031
48 | GCGAGA | 0.0695 ± 0.067 | 1.996 ± 0.016 | 0.197 ± 0.13 | 2.03 ± 0.018

Row | Variant | FACS-Seq fitted mean (log10) [1] | normalized RNA/DNA level without ligand (log10) [2] | FACS-Seq fitted mean (log10) [3] | normalized RNA/DNA level with ligand (log10) [4]
49 | GCGAGC | 0.231 ± 0.076 | 2.014 ± 0.01 | 0.217 ± 0.14 | 2.036 ± 0.014
50 | UCGUCG | 0.35 ± 0.044 | 2.02 ± 0.04 | 0.455 ± 0.16 | 2.06 ± 0.011
51 | UCGACU | 0.225 ± 0.028 | 2.011 ± 0.0057 | 0.701 ± 0.28 | 2.01 ± 0.022
52 | ACUGUG | 0.5433 ± 0.0045 | 1.853 ± 0.017 | 0.593 ± 0.12 | 2 ± 0.022
53 | ACGGAU | 0.261 ± 0.068 | 1.936 ± 0.017 | 0.344 ± 0.042 | 2.01 ± 0.037
54 | GCUUUA | 0.213 ± 0.02 | 1.99 ± 0.026 | 0.0416 ± 0.19 | 1.98 ± 0.05
55 | ACGGCA | 0.0556 ± 0.13 | 2.02 ± 0.026 | 0.139 ± 0.39 | 2.04 ± 0.029
56 | CCUUAU | 0.278 ± 0.013 | 2.023 ± 0.0064 | 0.394 ± 0.22 | 2.05 ± 0.022
57 | CCUGCU | -0.139 ± 0.054 | 2.06 ± 0.013 | -0.135 ± 0.0061 | 2.08 ± 0.04
58 | GCUAAU | 0.513 ± 0.029 | 1.986 ± 0.0026 | 0.516 ± 0.027 | 2.02 ± 0.022
59 | ACGAUC | 0.555 ± 0.16 | 2.062 ± 0.0089 | 0.363 ± 0.0082 | 2.038 ± 0.0079
60 | GGAAAA | 0.526 ± 0.051 | 1.983 ± 0.011 | 0.455 ± 0.15 | 2.04 ± 0.041
61 | GGAAAC | 0.359 ± 0.026 | 2.021 ± 0.0084 | 0.243 ± 0.22 | 2.0107 ± 0.00078
62 | UCGCAU | 0.644 ± 0.045 | 1.97 ± 0.018 | 0.661 ± 0.25 | 2 ± 0.042
63 | CCUCCA | 0.578 ± 0.057 | 2.02 ± 0.031 | 0.469 ± 0.016 | 2.04 ± 0.027
64 | GCGAUG | 0.371 ± 0.13 | 1.959 ± 0.008 | 0.407 ± 0.055 | 2.02 ± 0.043
65 | ACUUAA | -0.0941 ± 0.16 | 1.974 ± 0.011 | -0.044 ± 0.31 | 1.98 ± 0.033
66 | ACUUAG | 0.58 ± 0.02 | 1.93 ± 0.0033 | 0.402 ± 0.071 | 1.978 ± 0.0025
67 | ACUUAU | 0.328 ± 0.084 | 1.991 ± 0.0041 | 0.329 ± 0.12 | 2.02 ± 0.031
68 | ACUUAC | 0.478 ± 0.045 | 2.009 ± 0.0089 | 0.5359 ± 0.00057 | 2.016 ± 0.014
69 | ACCCGA | 0.249 ± 0.044 | 2.017 ± 0.016 | 0.537 ± 0.076 | 2.03 ± 0.044
70 | UCGAGU | 0.379 ± 0.014 | 1.966 ± 0.014 | 0.483 ± 0.24 | 2.0199 ± 0.0014
71 | GCUGAA | -0.084 ± 0.057 | 2.021 ± 0.02 | -0.25 ± 0.14 | 2.03 ± 0.028
